The text below walks through data of patent US20210070881A1 (DENALI THERAPEUTICS, published 2021).

The chains are these.
B1: 2H8.31 (antibody, human IgG1, V domains shown)
VH: EVQLQQSGPELVKPGASVKLSCKASGYTFTNFWIHWLKQRPGQGLEWIGMIDPSDSYTKYNQKFKAKATLTVDTSSSTTYMHLSSLTSEDSAVYYCARSGVAFPYWGQRTLVTVSA
VL: DIQMTQSQKFMSKSVGDRVSVTCKASQNVGSNVAWYQQKSGQSPKSLIYSASHRYSGVPDRFTGSGSGTDFTLTISNVQSEDLADYFCQQYNSYPYTFGGGTRLEIK
notes: human IgG1/kappa; also called 2H8_HC + 2H8_LCvar6
B2: 2H8.39 (antibody, human IgG1, V domains shown)
VH: B1 VH with P9A, K13R, A16T, N31S, F32Y, L37V, A66D
VL: B1 VL with Q3L, K13T, S31R, K39I, S46P, A84V, D85E, Y86F, R103K
notes: human IgG1/kappa; also called 2H8_HCvar3 + 2H8_LCvar7
B3: 2H8.04 (antibody, human IgG1, V domains shown)
VH: EIQLQQSGTELVRPGTSVKLSCKASGYTFTNYWMHWVKQRPGQGLEWIGMIDPSAAYTNYNQNFKGKATLTVDTSSGTAYMQLSSLTSEDSAVYYCARSGVAFPYWGQGTTVTVSS
VL: B1 VL with Q3V, R18T, N28D, S31R
notes: human IgG1/kappa; also called 2H8_HCvar4 + 2H8_LC
B4: 2H8.42 (antibody, human IgG1, V domains shown)
VH: EVQLQQSGAELVRPGTSVKLSCKASGYTFNNYWMHWVKQRPGQGLEWIGMIDPSDDDIKNNQKFKGKATLTVDTSSSTAYMQLISLTSEDSAVYYCARSGVALPYWGQGTLVTVSA
VL: B1 VL with Q3L, K13T, S31R, K39I, S46P, A84V, D85E, Y86F, R103K
notes: human IgG1/kappa; also called 2H8_HCvar6 + 2H8_LCvar7
B5: 2H8.35 (antibody, human IgG1, V domains shown)
VH: EVQLQQPGAEVVRPGTSVKLSCKASGYTFTNYWMHWVKQRPGQGLEWIGMIDPSDNYTKYNQKLKGKATLTVDTSSSTANMHVNSLTSEDSAVYFCARSGVAFPYWGQGTLVTVSA
VL: B1 VL
notes: human IgG1/kappa; also called 2H8_HCvar5 + 2H8_LCvar6
B6: 2H8.02 (antibody, human IgG1, V domains shown)
VH: B3 VH with I2V, S7P, V37I, A55D, A56T, N59K, Y60F, G77S, S84N
VL: B1 VL with Q3V, R18T, N28D, S31R
notes: human IgG1/kappa; also called 2H8_HCvar2 + 2H8_LC
B7: 2H8.05 (antibody, human IgG1, V domains shown)
VH: B5 VH
VL: B1 VL with Q3V, R18T, N28D, S31R
notes: human IgG1/kappa; also called 2H8_HCvar5 + 2H8_LC
B8: 2H8.41 (antibody, human IgG1, V domains shown)
VH: B5 VH
VL: B1 VL with Q3L, K13T, S31R, K39I, S46P, A84V, D85E, Y86F, R103K
notes: human IgG1/kappa; also called 2H8_HCvar5 + 2H8_LCvar7
B9: 2H8.32 (antibody, human IgG1, V domains shown)
VH: B3 VH with I2V, S7P, V37I, A55D, A56T, N59K, Y60F, G77S, S84N
VL: B1 VL
notes: human IgG1/kappa; also called 2H8_HCvar2 + 2H8_LCvar6
B10: 2H8.37 (antibody, human IgG1, V domains shown)
VH: B1 VH
VL: B1 VL with Q3L, K13T, S31R, K39I, S46P, A84V, D85E, Y86F, R103K
notes: human IgG1/kappa; also called 2H8_HC + 2H8_LCvar7
B11: hu2H8v4 (antibody, V domains shown)
VH: QVQLVQSGAEVKKPGASVKVSCKASGYTFTNFWIHWVRQAPGQGLEWMGMIDPSDSYTKYNQKFKARATLTRDTSTSTVYMELSSLRSEDTAVYYCARSGVAFPYWGQGTLVTVSS
VL: DIQMTQSPSSLSASVGDRVTITCKASQDVGRNVAWYQQKPGKAPKLLIYSASHRYSGVPSRFSGSGSGTDFTLTISSLQPEDFATYYCQQYNSYPYTFGQGTKVEIK
notes: humanized; also called hu2H8_HC5 + hu2H8_LC1
B12: hu2H8v10 (antibody, V domains shown)
VH: B11 VH
VL: B11 VL with A43S
notes: humanized
B13: hu2H8v12 (antibody, V domains shown)
VH: B11 VH with V37L, R72V, V79T
VL: B11 VL with A43S
notes: humanized; also called hu2H8_HC7 + hu2H8_LC2
B14: hu2H8v6 (antibody, V domains shown)
VH: B11 VH with V37L, R72V, V79T
VL: B11 VL
notes: humanized; also called hu2H8_HC7 + hu2H8_LC1
B15: hu2H8v19 (antibody, V domains shown)
VH: B11 VH with A68V, L70M, V79T
VL: B11 VL with A43S, L46S
notes: humanized; also called hu2H8_HC1 + hu2H8_LC4
B16: hu2H8v28 (antibody, V domains shown)
VH: B11 VH
VL: B11 VL with A43S, L46S, Y87F
notes: humanized; also called hu2H8_HC5 + hu2H8_LC5
B17: hu2H8v8 (antibody, V domains shown)
VH: B11 VH with V37L, A68V, L70M, V79T
VL: B11 VL with A43S
notes: humanized; also called hu2H8_HC2 + hu2H8_LC2
B18: hu2H8v16 (antibody, V domains shown)
VH: B11 VH
VL: B11 VL with L46S
notes: humanized; also called hu2H8_HC5 + hu2H8_LC3
B19: hu2H8v9 (antibody, V domains shown)
VH: B11 VH with V37L, A68V, L70M, R72V, V79T
VL: B11 VL with A43S
notes: humanized; also called hu2H8_HC3 + hu2H8_LC2
B20: hu2H8v5 (antibody, V domains shown)
VH: B11 VH with R72V
VL: B11 VL
notes: humanized; also called hu2H8_HC6 + hu2H8_LC1
B21: hu2H8v20 (antibody, V domains shown)
VH: B11 VH with V37L, A68V, L70M, V79T
VL: B11 VL with A43S, L46S
notes: humanized; also called hu2H8_HC2 + hu2H8_LC4
B22: hu2H8v13 (antibody, V domains shown)
VH: B11 VH with A68V, L70M, V79T
VL: B11 VL with L46S
notes: humanized; also called hu2H8_HC1 + hu2H8_LC3
B23: hu2H8v15 (antibody, V domains shown)
VH: B11 VH with V37L, A68V, L70M, R72V, V79T
VL: B11 VL with L46S
notes: humanized; also called hu2H8_HC3 + hu2H8_LC3
B24: hu2H8v24 (antibody, V domains shown)
VH: B11 VH with V37L, R72V, V79T
VL: B11 VL with A43S, L46S
notes: humanized; also called hu2H8_HC7 + hu2H8_LC4
B25: hu2H8v18 (antibody, V domains shown)
VH: B11 VH with V37L, R72V, V79T
VL: B11 VL with L46S
notes: humanized; also called hu2H8_HC7 + hu2H8_LC3
B26: hu2H8v30 (antibody, V domains shown)
VH: B11 VH with V37L, R72V, V79T
VL: B11 VL with A43S, L46S, Y87F
notes: humanized; also called hu2H8_HC7 + hu2H8_LC5
B27: hu2H8v26 (antibody, V domains shown)
VH: B11 VH with V37L, A68V, L70M, V79T
VL: B11 VL with A43S, L46S, Y87F
notes: humanized; also called hu2H8_HC2 + hu2H8_LC5
B28: hu2H8v11 (antibody, V domains shown)
VH: B11 VH with R72V
VL: B11 VL with A43S
notes: humanized; also called hu2H8_HC6 + hu2H8_LC2
B29: hu2H8v21 (antibody, V domains shown)
VH: B11 VH with V37L, A68V, L70M, R72V, V79T
VL: B11 VL with A43S, L46S
notes: humanized; also called hu2H8_HC3 + hu2H8_LC4
B30: hu2H8v23 (antibody, V domains shown)
VH: B11 VH with R72V
VL: B11 VL with A43S, L46S
notes: humanized; also called hu2H8_HC6 + hu2H8_LC4
B31: hu2H8v25 (antibody, V domains shown)
VH: B11 VH with A68V, L70M, V79T
VL: B11 VL with A43S, L46S, Y87F
notes: humanized; also called hu2H8_HC1 + hu2H8_LC5
B32: hu2H8v14 (antibody, V domains shown)
VH: B11 VH with V37L, A68V, L70M, V79T
VL: B11 VL with L46S
notes: humanized; also called hu2H8_HC2 + hu2H8_LC3
B33: hu2H8v22 (antibody, V domains shown)
VH: B11 VH
VL: B11 VL with A43S, L46S
notes: humanized; also called hu2H8_HC5 + hu2H8_LC4
B34: hu2H8v7 (antibody, V domains shown)
VH: B11 VH with A68V, L70M, V79T
VL: B11 VL with A43S
notes: humanized; also called hu2H8_HC1 + hu2H8_LC2

Where a chain is given by its changes, count along the chain named.

For one experiment, the target named is T1, recombinant BACE1 (BACE1 extracellular domain, R&D Systems Cat#931-AS) (UniProt P56817 22-457).
T1 construct: extracellular domain; also called BACE1 extracellular domain protein
T1 sequence (P56817 22-457): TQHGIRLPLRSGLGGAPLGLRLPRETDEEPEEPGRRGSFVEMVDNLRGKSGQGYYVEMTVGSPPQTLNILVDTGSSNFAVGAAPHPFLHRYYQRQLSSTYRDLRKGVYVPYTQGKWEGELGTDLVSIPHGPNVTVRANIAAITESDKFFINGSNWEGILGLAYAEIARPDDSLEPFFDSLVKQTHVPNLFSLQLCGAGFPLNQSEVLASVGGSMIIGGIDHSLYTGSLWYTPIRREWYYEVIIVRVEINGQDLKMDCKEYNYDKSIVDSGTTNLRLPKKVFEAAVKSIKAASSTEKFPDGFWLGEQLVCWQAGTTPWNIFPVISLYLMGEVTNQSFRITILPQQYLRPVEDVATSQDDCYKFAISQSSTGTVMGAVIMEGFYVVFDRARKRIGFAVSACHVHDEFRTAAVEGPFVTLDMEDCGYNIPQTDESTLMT
The experiment in a line: SPR Biacore. On the technique in general: In SPR one partner is held on a chip, and binding of the other changes the refractive index at the surface.
Broadly, the Kd is the free concentration of one partner at which half of the binding sites on the other are occupied at equilibrium, for simple one-to-one binding. The koff is a measure of how fast the partners let go of each other. The kon is a measure of how fast the partners come together. As for B1, the Kd was 11.1 nM, the koff amounted to 0.000168 s⁻¹ and the on-rate constant (kon) turned out to be 15200 M⁻¹ s⁻¹.
The matching figures for B2: 13 nM, 0.000217 s⁻¹ and 16600 M⁻¹ s⁻¹.
Turning to B3, the dissociation constant (Kd) was found to be 15.6 nM, the koff came out at 0.000362 s⁻¹ and the association rate constant (kon) was 23300 M⁻¹ s⁻¹.
Take B4: the dissociation constant (Kd) stood at 11.6 nM, the koff worked out at 0.000221 s⁻¹ and the on-rate (kon) amounted to 19000 M⁻¹ s⁻¹.
Consider B5, for which the Kd came out at 15.2 nM, the koff is 0.000171 s⁻¹ and the kon came to 11200 M⁻¹ s⁻¹.
Turning to B6, the Kd was found to be 13.1 nM, the koff stood at 0.000265 s⁻¹ and the kon worked out at 20200 M⁻¹ s⁻¹.
Consider B7, for which the Kd came out at 13.7 nM, the off-rate (koff) was 0.000251 s⁻¹ and the on-rate (kon) was found to be 18300 M⁻¹ s⁻¹.
In the case of B8, the Kd amounted to 10.7 nM, the off-rate (koff) came to 0.000197 s⁻¹ and the kon was found to be 18500 M⁻¹ s⁻¹.
As for B9, the Kd is 11.4 nM, the koff was 0.000172 s⁻¹ and the on-rate (kon) was 15100 M⁻¹ s⁻¹.
Taken in the same sequence, the figures for B10 were 16.4 nM, 0.000331 s⁻¹ and 20200 M⁻¹ s⁻¹.

The target of the next experiment is T1, recombinant BACE1 (BACE1 extracellular …). In words: SPR Biacore. This is another data set of the same source.
Turning to B11, the equilibrium dissociation constant (Kd) amounted to 169 nM.
Turning to B12, the dissociation constant (Kd) was 160 nM.
Turning to B13, the dissociation constant (Kd) is 171 nM.
Consider B14, for which the Kd was 109 nM.
Take B15: the Kd is 17.4 nM.
With B16, the Kd is 19.5 nM.
B17: the Kd amounted to 155 nM.
As for B18, the Kd amounted to 25.6 nM.
In the case of B19, the Kd came out at 130 nM.
Consider B20, for which the Kd stood at 96.3 nM.
Regarding B21, the Kd was 13.2 nM.
Regarding B22, the Kd worked out at 22.8 nM.
Regarding B23, the Kd was determined as 16.4 nM.
B24: the equilibrium dissociation constant (Kd) was 74 nM.
With B25, the dissociation constant Kd turned out to be 20.7 nM.
As to B26, the Kd worked out at 23.7 nM.
For the molecule B27, the dissociation constant (Kd) worked out at 16.3 nM.
Take B28: the equilibrium dissociation constant (Kd) was found to be 88.3 nM.
Same read-out and setting: then B29, with 13.5 nM; and B30, with 28 nM; and B31, with 22.1 nM.
The same measure, in the same setting: next, B32: 17.7 nM.
The same measure, in the same setting: next, B33: 21.9 nM; B34: 150 nM.

A further experiment deals with cellular BACE1 in CHOK1-huAPP cells. In words: cell-based or functional assay.
The IC50 is the concentration that inhibits the measured activity by half. In the case of B1, the “IC50” value was 33 nM and the Max. % inhibition amounted to 94%.
B2: it took 43 nM to reach half-maximal inhibition (IC50) and the Max. % inhibition was determined as 86%.
As for B3, 26 nM corresponded to half-maximal inhibition (IC50) and the Max. % inhibition turned out to be 82%.
In the case of B4, it took 53 nM to reach half-maximal inhibition (IC50) and the Max. % inhibition was 97%.
For B5, the “IC50” value came to 41 nM and the Max. % inhibition is 85%.
With B6, inhibition was half-maximal at 42 nM (IC50) and the Max. % inhibition was 81%.
Regarding B7, inhibition was half-maximal at 44 nM (IC50) and the Max. % inhibition turned out to be 87%.
Regarding B8, the “IC50” value was found to be 36 nM and the Max. % inhibition is 86%.
With B9, half-maximal inhibition (IC50) required 61 nM and the Max. % inhibition came out at 86%.
For B10, the midpoint of inhibition, the IC50, lay at 32 nM and the Max. % inhibition was found to be 93%.
